According to the nanobody polyreactivity screen of Harvey et al. (2022):

Assay: yeast display, Sf9 membrane polyspecificity reagent, FACS + sequencing; frameworks hold sequencing errors
In short: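 Galactose-induced (36–48 hours) yeast carrying a synthetic nanobody display library were exposed to 10% biotinylated, detergent-solubilized Sf9 membrane reagent at 4 °C for 1 hour. FACS followed streptavidin microbead enrichment, using low and high (top ~1%) gates for expression (anti-HA) and reagent binding (streptavidin). Colony PCR, MiSeq 2 × 250 sequencing and CDR-length filtering followed. Labels for polyreactivity reflect the gate of origin.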

| Sequence | polyreactivity (PSR sort gate) |
| --- | --- |
| HVQLQESGGGLVQAGGSLRLSCAASGSIFQATYMGWYRPAPGKEREFVASITYGSITNYADSVKGRFTIGRDNAKDTLYLQMNSLKPEDTAVYYCAAVGRRRTTVGRYVRMDYWGQGTQVTVSS | low polyreactivity |
| QVQLVESGGGLVQAGGSLRLSCAASGFTFWLYAMGSYRQAPGKEREFVAAISTSGGYTYADSVKGRFTISRDNAKNTVYLQMNSLKPEDTAVYYCAVDGLPPKDALHLYYYWGQGTQVTVSS | low polyreactivity |
| QVQLVESGGGLVQAGGSLRLSCAASGSTFKVYAMGWYRQAPGKERELVATISKSGSTYADSVKGRFTISRDNAKNTVYLQMNSLKPEDTAVYYCAADLYTYPRTRRRAYGYWGQGTQVTVSS | high polyreactivity |
| QVQLVESGGGLVQAGGSLRLSCAASGRTLGRNAMGWYRQAPGKVRELVASISSGGSTNYAYSVKGSFTISRDNAKNTVYLQMNSQKPEDTEVYYCNKRYRSLYSSGYDYWGQVTQVTVSS | high polyreactivity |
| QVQLVESGGGLVQAGGSLRLSCAASGSIFAGYAMGWYRQAPGKERELVAAISWSGGGTYYADSVKGRFTISRDNAKNTVYLQMNSLKPEDTAVYYCNAYGYRHRGNGYWGQGTQVTVSS | high polyreactivity |
| QVQLVESGGGLVQAGGSLRLSCAASGSTFTPYTMGWYRKAPGKETELVAAIRYGGGSTYYADSVKGRFTISRDNAKNTVYLQMNSLKPEDTAVYYCAVDSFYSGGTYDSDGYWGQGTQVTVSS | low polyreactivity |
| QVQLVESGGGLVQAGGSLRLSCAASGSTYYLYAMGWYRQAPGKESEFVARISASGGNTYYADSVKGRFTISRDNAKNTVYLQMNRLIPEDTAVFYCAARVRGRNASDYDYYYWGQGTQVTVSS | high polyreactivity |
| QVQLVESGGGLVQAGGSLRLSCAASGFTFGYYAMGWYRQAPGKERELVATIDRGGGTSYADSVKGRFTISRDNAKNTVYLQMNSLKPEDTAVYYCNRACYGAKARRYRSYWGQGTQVTVSS | high polyreactivity |
| QVQLVESGGGLVQAGGSLRLSCAASGRIFRYYAMGWYRQAPGKERELVASISSGGSTNYADSVKGRFTISRDNAKNTVYLQMNSLKPEDTAVYYCATVRRSTGGRLYYWGQGTQVTVSS | high polyreactivity |
| QVQLVESGGGLVQAGGSLRLSCAASGRILPSNAMGWYRQATGNERELVATISSSGGDTYYADSVKGRFTNSRDNAKNTVYLQMNSLKPEDTAVYYCAADSTWEGGYKYEYWGQGTQVTVSS | low polyreactivity |
| QVQLVESGGGLVQAGGSLRLSCAASGSIFSLYAMGWYRQAPGKERELVAAISQSGDSTFYADSVKGRFTISRDHAKNTVYLQMNSLKPEYTAVSYCAADPRNKAWKWDDYWGQGTQVTVSS | low polyreactivity |
| QVQLVESGGGLVQAGGSLRLSCAASGRIFKHYAMGWYRQAPGKERELVAAITNGGRTNYADSVKGRFTISRDNAKNTVYLQMNSLKPEDTAVYYCARDRKIAYLSEGFDYWGQGTQVTVSS | low polyreactivity |
| QVQLVESGGGLVQAGGSLRLSCAASGITFYRNAMGWYRQAPGKEMELVAAITWNGGRTYYADSVKGRFTISRDNAKNTVYLQMNSLKPEDTAVYYCAADSGTRNLASYRYYYWGQATQVTVSS | low polyreactivity |
| QVELVESAGGLVQAGGSLRLSCAGSGSTFEYNAMGWYRQGPGKERELVASSTNYADSVKGRFTISRDNAKNTVYLKMNSLKPEDTAVYYCAREQGVNRYHDYWGQGTQVTVSS | low polyreactivity |
| QVQLVESGGGLVQAGGSLRLSCDASGITFWNALGWYRQAPGKERELVAAITSSGGSTYYADSVKGRFTISRDNAKNTVDLQMNSLKPEDTAVYYCAADYGRTRYDMDYWGQGTQVTVSS | low polyreactivity |
| QVHLVESGGGLVQAGGSLRLSCAASGRTFGWNVMGWYRPAPGKERELVAAISGSGGSTYYADSVKGRFTISRDNAKNPVYLQMNSLKPEDTAVYYCAALYGPGREYDYWGQVTQVTVSS | low polyreactivity |

| Sequence | polyreactivity (PSR sort gate) |
| --- | --- |
| QVQLVESGGGLVQAGGSLRLSCAASGLTFRYNAMGWYRQAPGKERELVAAIRTSGGSTYYADSVKGRFTISRDNAKNTVYLQMNSLKPEDTAVYYCAARSKSYYGGYARGYWGQGTQVTVSS | high polyreactivity |
| QVQLVESGAGIVQAGGSHRLSCAASGFIFFGYAAMEWYRQAPGKERELVAAISWSGGSTYYADSVKGRFTISRDHAKYTVYLQMNSLKPEDTAVYYCNAVYLKLYPWLDYWGQVTQVTVSS | low polyreactivity |
| QVQLVESGGGLVQAGGSLRLSCAASGRTFRWNVMGWYRQAPGKERELVAAISSDGSTYYADSVKGRFTISGDNAKNTVYLQMNSLKPEDTAVYYCAAVVSYYFRYGGSAYKYGYWGQGTQVTVSS | high polyreactivity |
| QVQLVESGGGLVQAGGSLRLSCAASGSTFQNYAMGWYRQAPGKERELVATINWSGGNTYYADSVKGRFTISRDNAKNTVYLQMNSLKPEDTAVYYCAADSPRYYYWVGPYYGYDYWGQGTQVTVSS | high polyreactivity |
| QVQLVESGGGLVQAGGSLRLSCAASGRTFRTYTMGWYRQAPGKERELVAAISWSGSSTYYADSVKGRFTISRDNAKNTVYLQMNSLKPEDTAGYYCAARGLYDYGYWGQGTQVTVSS | high polyreactivity |
| QVQLVESGGGLVQAGGSLRLSCAASGRTMNSNAKGSYRQAPGKEREFVAAITSGGSTNYADSVKGRFSLSRDNAKNTVYLQMTSLKPEDTAVYYCAVRGYWTIRCRRYYYWGHGTQVTVSS | high polyreactivity |
| QVQLVESGGGLVQAGGSLRLSCAASGSIFVGYAMGWYRQAPGKERELVAAISKRGGGTYYADSVKGRFTISRDNAKNTVYLQMNSLKPEDTAVYYCNAVTVHLDVASGYYYWGQGTQVTVSS | high polyreactivity |
| QVQLVESGGGLVQAGGSLRLSCAASGFTFLSNAMGWYRQAPVKERELVAGISWDAGSTNYADSVKGRVTISRDNAKNTVYLQMNSLKPEDTAVYYCNADDSTGSRFYIEYDYWGQGTQVTVSS | low polyreactivity |
| QGQRVESGGGLGQAGGSLRISCAASGLTFHRYAMGWYRQAQGKETELVAAINYSGGRTYYADSVKGRFTISRDNAKYTVYFQMNSLKPEDTAVYYCNVARWGNIPVGEYDYWGQGTQVTVSS | high polyreactivity |
| QVQLVESGGGLVQAGGSLRLSCAASGIIFAYAMGWYRQAPGKERELVAAISGRDGSTYYADSVKGRFTISRDNAKNTVYLQMNSLKPEDTAVYYCAKRISYLPVEMDYWGQGTQVTVSS | low polyreactivity |
| QVQLVESGGGLVQAGGSLRLSCAASGRTLGPNAMGWYRQAPGKERELVAAISWSGGSTYYADSVKGRFTISRDNAKNTVYLQMNSLKPEDTAVYYCAAEWYWVYYVPYEYWGQGTQVTVSS | low polyreactivity |
| QVQLVESGGGLVQAGGSLRLSCAASGLIFNLYAMGWYRQAPGKEREFVATITGIGGSTYYADSVKGRFTISRDIAKNTVYLQMNSLKPDDTAVYYCAADAWFVPYNYWGQGTQVTVSS | low polyreactivity |
| QVQLVESGGGLVQAGGSLRLSCAASGRIFLFNAMGWYRQAPGKEREFVAAISASGGSTYYADSVKGRFTISRDNAKNTVYLQMNSLKPEDTAVYYCAADYLYTRDVDYDYWGQGTQVTVSS | low polyreactivity |
| QVQLVESGGRLVQAGGSLRLSCAASGLIFAPYAMGWYRQAPGKEWELVAAISSSGTSTYYADSVKGRFTISRDNAKNTVYLQMNSLKPEDTAVYYCAAVYWTFWGTIATRYDYWGQGTQVTVSS | high polyreactivity |
| QVQLQESGGGLVNAGGSLRLSCAASGTISFINMMGWYRQAPGRERELVASINFGANTNYADSVKGRFTISRDNAKNTVYLQMNSLKPEDTAVYYCAVYDFDAYTLYYWGQGTLVTVSS | high polyreactivity |
